Measurements taken from publication PMC3723849 (PLoS ONE, 2013).
No end group written: not given here. *: point of attachment. Acm = CC(=O)NC*

Legend:
[1] = molecular target: T1, His-tagged PSMA (PSMA-His6), soluble ectodomain of prostate-specific membrane antigen (human, UniProt Q04609 44-750); assay: AlphaScreen or HTRF; competition: 563-biotin on streptavidin donor beads, PSMA-His6 on nickel chelate acceptor beads, unlabeled peptide at various concentrations; ambient temperature; 25 mM HEPES, 100 mM NaCl, pH 7.4; IC50 used to approximate KD; settings: both partners purified
T1 construct: prostate-specific membrane antigen (PSMA), human, soluble ectodomain; also called soluble PSMA; poly-histidine tagged PSMA; source: bought: R&D Systems

[2] = molecular target: T1, His-tagged PSMA (PSMA-His6), soluble …; assay: immunostaining of cells or tissue; competition: LNCaP cells pre-incubated with soluble PSMA-His6 (100 nM, 2 h, 37°C) before the phage clones were added; loss of phage staining read by confocal microscopy (rfu in ten cells); settings: both partners purified

T1 sequence (Q04609 44-750): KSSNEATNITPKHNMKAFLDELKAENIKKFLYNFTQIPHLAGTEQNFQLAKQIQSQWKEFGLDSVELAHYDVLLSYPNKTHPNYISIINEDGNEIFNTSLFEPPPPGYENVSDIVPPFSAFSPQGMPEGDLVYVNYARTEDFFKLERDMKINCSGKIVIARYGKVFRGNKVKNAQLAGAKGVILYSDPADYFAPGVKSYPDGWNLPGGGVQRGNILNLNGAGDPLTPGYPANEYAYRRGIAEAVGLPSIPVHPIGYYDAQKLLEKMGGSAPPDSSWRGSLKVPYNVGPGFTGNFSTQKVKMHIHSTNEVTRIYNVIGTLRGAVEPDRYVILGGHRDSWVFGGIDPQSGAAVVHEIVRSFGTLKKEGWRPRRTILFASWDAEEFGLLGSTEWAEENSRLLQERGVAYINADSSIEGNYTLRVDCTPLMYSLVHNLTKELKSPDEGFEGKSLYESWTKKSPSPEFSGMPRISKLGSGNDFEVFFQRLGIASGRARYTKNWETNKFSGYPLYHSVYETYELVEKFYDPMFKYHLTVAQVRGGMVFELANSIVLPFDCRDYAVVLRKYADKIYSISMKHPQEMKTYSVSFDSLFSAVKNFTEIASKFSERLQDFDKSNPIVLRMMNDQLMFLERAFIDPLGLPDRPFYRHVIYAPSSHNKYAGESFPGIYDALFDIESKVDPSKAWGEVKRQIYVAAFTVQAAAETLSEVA

B1: Peptide 564 (peptide)
peptide: LSFFSC(Acm)WLRRSFSLT
notes: 15-mer from phage clone G; Made on Rink amide resin, so a C-terminal amide is to be expected (surmised); source: synthetic peptide (HPLC purified)
- IC50 [1]: 1720 nM

B2: Phage clone 2 (round 2 of panning) (peptide)
chain: GTAVASRVYSLHSLM
notes: source: phage clone from the fUSE5 15-mer library, amplified in E. coli K91BluKan; not shown: bacteriophage coat protein (fd phage, fUSE5 library), C-terminal, kept
- binding result [2]: binds

B3: Peptide 565 (peptide)
peptide: ARMFLLFLMRC(Acm)IGC(Acm)Y
modifications: not fully specified
notes: 15-mer from phage clone C; Made on Rink amide resin, so a C-terminal amide is to be expected (surmised); source: synthetic peptide (HPLC purified)
- IC50 [1]: > 4830 nM
